# Assay results published in PMC2216138 (The Journal of General Physiology, 1988).
# Like-named read-outs stand apart in the source and are kept apart here.
# Experiments:
# [1] = target: T1, High-conductance, Ca2+-activated K+ channel from rat skeletal muscle (rat (endogenous in skeletal muscle), UniProt Q62976 1-1209); assay: single-channel recording in planar lipid bilayers
# [2] = target: T1, High-conductance, Ca2+-activated K+ …; assay: single-channel recording in planar lipid bilayers; remark: listed apart in the source
# T1 sequence (Q62976 whole entry): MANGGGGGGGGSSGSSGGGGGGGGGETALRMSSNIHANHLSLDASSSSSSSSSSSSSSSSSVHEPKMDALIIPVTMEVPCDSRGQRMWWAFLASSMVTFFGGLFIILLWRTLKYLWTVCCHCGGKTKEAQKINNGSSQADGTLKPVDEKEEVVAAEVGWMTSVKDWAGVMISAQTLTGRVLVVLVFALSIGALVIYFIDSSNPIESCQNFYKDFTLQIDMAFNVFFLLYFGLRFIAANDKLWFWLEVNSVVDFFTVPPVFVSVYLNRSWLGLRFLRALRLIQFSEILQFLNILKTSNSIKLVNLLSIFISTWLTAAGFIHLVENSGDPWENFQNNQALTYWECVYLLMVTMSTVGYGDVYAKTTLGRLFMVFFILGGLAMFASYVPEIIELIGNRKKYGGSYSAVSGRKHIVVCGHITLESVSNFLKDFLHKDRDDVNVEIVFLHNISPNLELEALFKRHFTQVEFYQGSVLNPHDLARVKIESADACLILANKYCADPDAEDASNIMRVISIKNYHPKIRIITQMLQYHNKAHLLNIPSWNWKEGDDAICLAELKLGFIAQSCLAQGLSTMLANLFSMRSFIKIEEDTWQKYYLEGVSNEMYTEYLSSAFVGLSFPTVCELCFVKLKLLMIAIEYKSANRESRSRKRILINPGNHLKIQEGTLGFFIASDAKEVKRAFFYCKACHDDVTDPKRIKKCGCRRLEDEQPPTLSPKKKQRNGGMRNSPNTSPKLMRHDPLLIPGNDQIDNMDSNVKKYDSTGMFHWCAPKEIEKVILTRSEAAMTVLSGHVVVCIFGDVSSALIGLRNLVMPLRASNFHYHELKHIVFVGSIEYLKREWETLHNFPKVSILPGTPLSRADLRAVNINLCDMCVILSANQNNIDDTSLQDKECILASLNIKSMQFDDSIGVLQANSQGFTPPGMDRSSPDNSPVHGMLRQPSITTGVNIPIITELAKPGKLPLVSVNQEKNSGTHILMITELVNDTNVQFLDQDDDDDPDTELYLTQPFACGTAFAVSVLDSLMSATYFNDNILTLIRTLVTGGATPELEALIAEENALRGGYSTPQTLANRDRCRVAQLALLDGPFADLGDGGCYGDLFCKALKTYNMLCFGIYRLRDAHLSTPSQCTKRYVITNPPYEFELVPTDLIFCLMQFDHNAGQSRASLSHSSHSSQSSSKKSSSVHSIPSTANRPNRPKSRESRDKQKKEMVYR
binder,measurement,setting,value
QFTNVSCTTSKECWSVCQRLHNTSRGKCMNKKCRCYS (natural protein) [Charybdotoxin],koff,[1],~0.01 s⁻¹
same,koff,[2],0.01 s⁻¹
